# Where no end group is shown, it is not given here. [ ]: non-standard residue; d: D form. pS = N[C@@H](COP(=O)(O)O)C(=O)O
# Target: recombinant human PP1α (residues 7–300) (human, UniProt P62136 7-300)
# Experiment: SPR
# Sequence of recombinant human PP1α (residues 7–300) (P62136 7-300): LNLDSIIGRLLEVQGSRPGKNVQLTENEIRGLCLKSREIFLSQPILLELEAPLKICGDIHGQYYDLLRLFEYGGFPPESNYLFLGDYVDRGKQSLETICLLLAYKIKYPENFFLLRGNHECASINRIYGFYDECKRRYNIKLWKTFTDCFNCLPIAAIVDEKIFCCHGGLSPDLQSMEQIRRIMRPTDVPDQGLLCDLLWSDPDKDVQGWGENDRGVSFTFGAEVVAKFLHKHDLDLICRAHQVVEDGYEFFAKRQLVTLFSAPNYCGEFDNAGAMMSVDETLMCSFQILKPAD
binder,measurement,value
HIPR[pS]PYKFPSSPLRKKCCFHCQVCFITK (cysteine pairing not given here) [pRb-Tat hybrid peptide],koff,0.00394 s⁻¹

# From publication PMC6753193 (2019)
